Patent publication KR20220072468A (dated 2022)

Biological target: T1, 인간 TIGIT-His (human, UniProt Q495A1 22-141)
T1 construct: extracellular domain; also called TIGIT-6x His; TIGIT 항원
T1 sequence: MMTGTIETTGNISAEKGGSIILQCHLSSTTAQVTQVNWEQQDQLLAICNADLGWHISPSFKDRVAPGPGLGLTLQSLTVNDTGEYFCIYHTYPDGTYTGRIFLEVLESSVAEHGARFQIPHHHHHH
Test: BLI (Octet QK), antibody on AHC biosensor, human TIGIT-His 15 nM ~ 1.88 nM, 1:1 global fit

B1: SA2209 (antibody, V domains shown)
VH: QVQLQESGPGLVKPSGTLSLTCAVSGVSIRQGHWWSWVRQPPGKGLEWIGEIYQTGRTNYNPSLKSRVTISVGKSRNHISLKLSSVTAADTAVYYCTTGSGWYPIDYWGQGTLVTVSS
VL: SYELTQDPAVSVALGQTVRITCQGDSLRGFYASWYQQKPGQAPLLVLYGVKDRPSGIPDRFSGSRSGTTASLTITGAQAEDEADYYCNSRDSNGAMMFGGGTKLTVL
notes: also called 항-TIGIT 항체; anti-TIGIT antibody
Binder B1 has a Kd of 3.43 nM, a koff of 0.00136 s⁻¹ and a kon of 397000 M⁻¹ s⁻¹.
